Test results from article PMC9210659.

Target: C16-Pks13(S1533A) (Pks13(S1533A) loaded with a C16 chain on the AT catalytic serine) (Mycobacterium tuberculosis H37Rv) (UniProt I6X8D2)
Assay: SEC + other: SAXS

Q: Which results are given for “C16-Pks13(S1533A) (Pks13(S1533A) loaded with a C16 chain on the AT catalytic serine) (from UniProt I6X8D2 1-1733) (enzyme)”?
A: percent dimer: 60%; stoichiometry N: 2
